Tested on: Escherichia coli TOP10
Assay: shrunken log2 fold change of peptide-encoding DNA abundance (4.5 h post-induction vs induction); higher = less antimicrobial activity (less host growth inhibition)
Conditions: time post-induction: 4.5 h; library: site-saturation at positions 5, 18, 19, 20
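Note: peptides expressed intracellularly from a pBAD plasmid library in pooled LB shake-flask culture, induced with 0.3% L-arabinose, DNA abundance read by NGS, three biological replicates, DESeq2 with apeglm shrinkage.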

Sequence	shrunken log2 fold change
RRIRVRPPRLPRPRPRPGNDPRP	-0.0387
RRIRHRPPRLPRPRPRPHPFPRP	-0.3
RRIRTRPPRLPRPRPRPLLKPRP	-0.336
RRIRKRPPRLPRPRPRPTRPPRP	0.764
RRIRCRPPRLPRPRPRPVDNPRP	-0.00721
RRIRPRPPRLPRPRPRPKFNPRP	-0.404
RRIRMRPPRLPRPRPRPACDPRP	0.974
RRIRFRPPRLPRPRPRPWAAPRP	0.385
RRIRHRPPRLPRPRPRPSCGPRP	-0.304
RRIRTRPPRLPRPRPRPHAAPRP	0.0465
RRIRDRPPRLPRPRPRPWSRPRP	-0.612
RRIRMRPPRLPRPRPRPNPTPRP	0.849
RRIRLRPPRLPRPRPRPWDAPRP	0.135
RRIRWRPPRLPRPRPRPEKEPRP	0.0112
RRIRLRPPRLPRPRPRPAVCPRP	0.0348
RRIRWRPPRLPRPRPRPLMKPRP	-0.0639
RRIRSRPPRLPRPRPRPIWKPRP	0.346
RRIRRRPPRLPRPRPRPHAWPRP	0.438
RRIRNRPPRLPRPRPRPFATPRP	-0.101
RRIRQRPPRLPRPRPRPETWPRP	0.00978
RRIRCRPPRLPRPRPRPGWCPRP	-0.0717
RRIRPRPPRLPRPRPRPTNTPRP	-0.375
RRIRHRPPRLPRPRPRPWCVPRP	-0.386
RRIRSRPPRLPRPRPRPLEWPRP	0.14
RRIRVRPPRLPRPRPRPTMYPRP	-0.245

Sequence	shrunken log2 fold change
RRIRSRPPRLPRPRPRPDFAPRP	-0.021
RRIRDRPPRLPRPRPRPHQSPRP	0.0679
RRIRNRPPRLPRPRPRPCIHPRP	-0.355
RRIRVRPPRLPRPRPRPWKRPRP	-0.1
RRIRERPPRLPRPRPRPPSPPRP	-0.0326
RRIRGRPPRLPRPRPRPVREPRP	1.11
RRIRGRPPRLPRPRPRPSFEPRP	0.647
RRIRHRPPRLPRPRPRPYERPRP	-0.00674
RRIRIRPPRLPRPRPRPDMFPRP	-0.17
RRIRCRPPRLPRPRPRPPATPRP	0.887
RRIRTRPPRLPRPRPRPPPVPRP	0.652
RRIRERPPRLPRPRPRPLIQPRP	-0.28
RRIRGRPPRLPRPRPRPKLQPRP	0.991
RRIRHRPPRLPRPRPRPYHDPRP	-0.135
RRIRYRPPRLPRPRPRPPELPRP	0.162
RRIRQRPPRLPRPRPRPFFGPRP	6.44e-05
RRIRHRPPRLPRPRPRPAHVPRP	0.128
RRIRFRPPRLPRPRPRPHEMPRP	-0.0108
RRIRTRPPRLPRPRPRPHRRPRP	0.0892
RRIRGRPPRLPRPRPRPKATPRP	1.52
RRIRPRPPRLPRPRPRPVPNPRP	0.14
RRIRRRPPRLPRPRPRPRWYPRP	0.092
RRIRDRPPRLPRPRPRPAVDPRP	-0.0491
RRIRCRPPRLPRPRPRPIWYPRP	-0.564
RRIRIRPPRLPRPRPRPSECPRP	-0.00498

Sequence	shrunken log2 fold change
RRIRARPPRLPRPRPRPRSAPRP	0.681
RRIRCRPPRLPRPRPRPRGTPRP	0.0528
RRIRFRPPRLPRPRPRPHYVPRP	-1.78
RRIRHRPPRLPRPRPRPMNIPRP	-0.214
RRIRQRPPRLPRPRPRPTKSPRP	0.00581
RRIRKRPPRLPRPRPRPGYSPRP	-0.447
RRIRNRPPRLPRPRPRPGQCPRP	0.0172
RRIRRRPPRLPRPRPRPECHPRP	0.171
RRIRGRPPRLPRPRPRPIMGPRP	0.0308
RRIRDRPPRLPRPRPRPRRYPRP	0.247
RRIRWRPPRLPRPRPRPVWEPRP	0.912
RRIRQRPPRLPRPRPRPKTLPRP	-0.156
RRIRTRPPRLPRPRPRPVGTPRP	-0.201
RRIRFRPPRLPRPRPRPHGVPRP	-0.0563
RRIRKRPPRLPRPRPRPDLYPRP	-0.00937
RRIRRRPPRLPRPRPRPVRWPRP	0.825
RRIRRRPPRLPRPRPRPKTDPRP	0.163
RRIRCRPPRLPRPRPRPRLDPRP	0.154
RRIRLRPPRLPRPRPRPCRFPRP	-0.226
RRIRERPPRLPRPRPRPAVDPRP	0.116
RRIRFRPPRLPRPRPRPCDDPRP	-0.00233
RRIRCRPPRLPRPRPRPRDGPRP	1
RRIRWRPPRLPRPRPRPRFLPRP	0.0174
RRIRGRPPRLPRPRPRPNTYPRP	0.106
RRIRNRPPRLPRPRPRPNNTPRP	-0.798

Sequence	shrunken log2 fold change
RRIRGRPPRLPRPRPRPSLPPRP	0.178
RRIRRRPPRLPRPRPRPVAGPRP	0.453
RRIRMRPPRLPRPRPRPTQTPRP	2.06
RRIRYRPPRLPRPRPRPMNTPRP	-1.25
RRIRTRPPRLPRPRPRPDYSPRP	-0.0445
RRIRMRPPRLPRPRPRPHEMPRP	0.0891
RRIRERPPRLPRPRPRPTKQPRP	-0.275
RRIRHRPPRLPRPRPRPQRHPRP	0.0629
RRIRFRPPRLPRPRPRPSMSPRP	-0.394
RRIRIRPPRLPRPRPRPAENPRP	-0.0424
RRIRERPPRLPRPRPRPENEPRP	-0.0522
RRIRCRPPRLPRPRPRPAICPRP	0.0424
RRIRFRPPRLPRPRPRPIWCPRP	-0.0176
RRIRVRPPRLPRPRPRPKPKPRP	0.312
RRIRVRPPRLPRPRPRPTSSPRP	-0.0575
RRIRSRPPRLPRPRPRPVWNPRP	-0.372
RRIRMRPPRLPRPRPRPDYNPRP	-0.21
RRIRFRPPRLPRPRPRPSLIPRP	-1.06
RRIRKRPPRLPRPRPRPRGWPRP	0.792
RRIRSRPPRLPRPRPRPLRAPRP	0.858
RRIRCRPPRLPRPRPRPSWGPRP	0.258
RRIRHRPPRLPRPRPRPAGPPRP	0.056
RRIRARPPRLPRPRPRPLAEPRP	0.976
RRIRCRPPRLPRPRPRPHISPRP	-0.535
RRIRQRPPRLPRPRPRPLPPPRP	1.09

Sequence	shrunken log2 fold change
RRIRNRPPRLPRPRPRPTLIPRP	-0.461
RRIRRRPPRLPRPRPRPWYTPRP	-0.637
RRIRARPPRLPRPRPRPCKHPRP	-0.116
RRIRWRPPRLPRPRPRPWHQPRP	0.00792
RRIRARPPRLPRPRPRPHIHPRP	-0.45
RRIRFRPPRLPRPRPRPVYEPRP	-0.66
RRIRQRPPRLPRPRPRPDNNPRP	-1.14
RRIRQRPPRLPRPRPRPTELPRP	0.124
RRIRARPPRLPRPRPRPQWGPRP	0.315
RRIRCRPPRLPRPRPRPLHAPRP	0.369
RRIRKRPPRLPRPRPRPNQCPRP	0.0387
RRIRHRPPRLPRPRPRPAMGPRP	-0.336
RRIRYRPPRLPRPRPRPDQNPRP	-0.269
RRIRFRPPRLPRPRPRPLWGPRP	0.251
RRIRGRPPRLPRPRPRPHGWPRP	0.161
RRIRSRPPRLPRPRPRPDYTPRP	-0.342
RRIRVRPPRLPRPRPRPGKQPRP	0.0812
RRIRFRPPRLPRPRPRPIPEPRP	0.236
RRIRGRPPRLPRPRPRPNPYPRP	-0.0945
RRIRERPPRLPRPRPRPRSLPRP	-0.0254
RRIRMRPPRLPRPRPRPLHSPRP	0.0835
RRIRYRPPRLPRPRPRPSVYPRP	-0.888
RRIRLRPPRLPRPRPRPMWAPRP	0.0661
RRIRKRPPRLPRPRPRPGSHPRP	0.0202
RRIRTRPPRLPRPRPRPTKRPRP	0.139

Sequence	shrunken log2 fold change
RRIRFRPPRLPRPRPRPRLNPRP	-0.228
RRIRLRPPRLPRPRPRPMLHPRP	-0.34
RRIRARPPRLPRPRPRPHHFPRP	-0.0814
RRIRLRPPRLPRPRPRPKAQPRP	-0.00354
RRIRDRPPRLPRPRPRPKDHPRP	0.0158
RRIRYRPPRLPRPRPRPHLCPRP	-0.0639
RRIRWRPPRLPRPRPRPSMGPRP	0.033
RRIRARPPRLPRPRPRPWDSPRP	-0.277
RRIRWRPPRLPRPRPRPECFPRP	0.671
RRIRVRPPRLPRPRPRPDVYPRP	-0.0411
RRIRRRPPRLPRPRPRPWYNPRP	-0.468
RRIRTRPPRLPRPRPRPRWQPRP	0.47
RRIRDRPPRLPRPRPRPGRGPRP	0.725
RRIRDRPPRLPRPRPRPGHYPRP	0.0149
RRIRRRPPRLPRPRPRPFEHPRP	-0.0715
RRIRRRPPRLPRPRPRPSQFPRP	0.0893
RRIRQRPPRLPRPRPRPFAKPRP	-0.0663
RRIRCRPPRLPRPRPRPLHIPRP	-0.335
RRIRKRPPRLPRPRPRPRVIPRP	0.0832
RRIRLRPPRLPRPRPRPIKDPRP	-0.374
RRIRMRPPRLPRPRPRPYIRPRP	-0.13
RRIRGRPPRLPRPRPRPHSIPRP	0.169
RRIRYRPPRLPRPRPRPLTRPRP	-0.0623
RRIRTRPPRLPRPRPRPYFSPRP	-0.156
RRIRERPPRLPRPRPRPIYDPRP	-0.137
